Test results as given in patent US11633499B2, “Anti-TMEM-180 antibody, anticancer drug and cancer testing method” (NATIONAL CANCER CENTER JAPAN, priority 2016, dated 2023).
Values belong to the molecule of their own block, whether it stands above or below them.

Legend:
[1] = test system: cell lines derived from cancers (ATCC and JCRB); assay: Reactivity of antibodies to cancer-derived cell lines by FACS (Table 23); assay type: binding
[2] = target: T1, exosomes presenting TMEM-180 from DLD-1 cell line (Homo sapiens, UniProt Q14CX5); assay: Detection of TMEM-180 exosomes in culture supernatant (immobilized anti-TMEM-180 antibody, anti-CD9 detection); assay type: binding; conditions: immobilized antibody 5 μg/mL; detection with anti-CD9 antibody; FIG. 18
T1 construct: endogenous in cells; host or cells: DLD-1 colon cancer cell line (parent / wild type); culture supernatant exosomes in A20
T1 sequence (Q14CX5 1-517): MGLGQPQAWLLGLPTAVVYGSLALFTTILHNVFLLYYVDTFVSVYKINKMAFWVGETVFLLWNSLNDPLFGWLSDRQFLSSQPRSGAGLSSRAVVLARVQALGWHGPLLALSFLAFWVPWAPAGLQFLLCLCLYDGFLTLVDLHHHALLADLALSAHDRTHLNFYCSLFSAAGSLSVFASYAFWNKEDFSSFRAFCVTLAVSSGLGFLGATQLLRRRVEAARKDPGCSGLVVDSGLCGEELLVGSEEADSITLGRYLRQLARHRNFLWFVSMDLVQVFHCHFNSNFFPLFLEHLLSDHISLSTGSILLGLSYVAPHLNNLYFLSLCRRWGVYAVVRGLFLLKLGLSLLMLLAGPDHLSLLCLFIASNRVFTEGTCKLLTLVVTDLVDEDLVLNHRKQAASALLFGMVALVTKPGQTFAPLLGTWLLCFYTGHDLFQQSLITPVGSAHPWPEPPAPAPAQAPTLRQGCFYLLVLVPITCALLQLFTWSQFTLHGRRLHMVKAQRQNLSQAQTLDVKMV
Description: Thus, the inventors constructed a system for detecting exosomes in the culture supernatant. In this system, an anti-TMEM-180 antibody was immobilized on the surface of the plate, and exosomes containing TMEM-180 which were bound to the immobilized antibody were detected with an anti-CD9 antibody which CD9 is an exosome maker. The DLD-1 cell line (also referred to as “wild type DLD-1 cell line”) was used as cells. The TMEM-180 knockdown DLD-1 cell line and K562 cell line were used as negative controls.
Specifically, an anti-TMEM-180 antibody was diluted with phosphate buffer such that the concentration will be 5 μg/mL, and then added to a 96 well plate (Maxisorp #442404, Thermo Fisher co., Ltd.) at 50 μL/well. The immobilization reaction was performed by incubation for 2 hours at room temperature or for overnight at 4° C. The plate after the immobilization was washed three times with 300 μL/well of a plate washing solution. The plate was blocked with 200 μL/well of a blocking agent (1% BSA/TBS-T), and allowed to stand for 1 hour at room temperature or for overnight at 4° C. […] Then, the optical density at 450 nm was measured with a plate reader.

[3] = test system: cell lines derived from cancers (ATCC and JCRB); assay: Reactivity of antibodies to cancer-derived cell lines by FACS (Table 23); assay type: binding; remark: listed apart in the source
Experimental: Cancer cells targeted for measurement were cultured in medium and then added to a V-bottom 96-well plate (Corning Incorporated) to a concentration of 1×10^5 cells/well. The plate was centrifuged for 3 minutes at 440×g and 4° C. followed by removing the supernatant, adding antibody-producing hybridoma culture supernatant or antibody solution to the cell pellet at 50 μL/well and suspending therein. After allowing to react for 45 minutes on ice, the plate was washed three times with a mixture of 0.1% BSA, 2 mM EDTA and PBS at 200 μL/well. The supernatant was removed and secondary antibody was added to the cell pellet at 50 μL/well followed by suspending the cells therein. ALEXAFLUOR 647@ (fluorescent compound) goat anti-rat IgG (H-L) (Life Technologies Corporation) was used for the secondary antibody after diluting 400-fold with a mixture of 0.1% BSA, 2 mM EDTA and PBS. After allowing to react for 45 minutes on ice, the plate was washed three times with a mixture of 0.1% BSA, 2 mM EDTA and PBS at 200 μL/well. After removing the supernatant, 50 ng/mL of propidium iodide, 0.1% BSA, 2 mM EDTA and PBS were added to the cell pellet at 250 µL/well followed by suspending therein. The cells stained in this manner were measured using a flow cytometer such as the Guava easyCyte 8HT (Merck Millipore Corporation) followed by analysis of the resulting data using FlowJO (Tomy Digital Biology Co., Ltd.). FACS analysis was carried out using colon cancer, brain tumor and hematologic cancer.
Cancer-detection rates were tested using monoclonal antibodies (the 669 antibody, 1052 antibody, 1105 antibody, and 1361 antibody).
In this Example, the reactivity of the antibodies to the cell lines derived from cancers which were obtained from ATCC and JCRB was analyzed by FACS.

[4] = test system: normal tissues (skin, brain, small intestine, liver, heart, lung, kidney); assay: Immune histochemistry of normal human tissues; assay type: binding
Experimental: The paraffin sections were prepared from the tissue specimens in the same way as shown in Example 6 according to a routine procedure. The prepared sections were subjected to reactions with 1 μg/mL of one of the above antibodies. An HRP-labelled anti rat antibody was used as a secondary antibody, which emitted light with DAB. The observation was performed after hematoxylin staining.

normal stroma = assay: Reactivity to normal stroma; assay type: binding; conditions: compared with the 1361 antibody
Wildtype DLD-1 cells = assay: Internalization of the antibody; assay type: cell-based, human; conditions: 488-labelled antibody; 37° C.; 1, 3 or 6 hours; FIG. 25
Experimental: Wildtype DLD-1 cells were plated on a 96-well plate at 5,000 cells/well. The plate was incubated at 37° C. for 18 hours. After washing, a 488-labelled 669 antibody was added to the wells at 2 μL/well and was incubated at 37° C. for certain hours (1 hour, 3 hours, or 6 hours). After the wells were washed three times, a rabbit anti 488 antibody was added at 2 μL/well to stand still at 4° C. for 30 minutes to quench the fluorescence derived from the antibodies binding to the cell surface. After the wells were washed three times, 4% PFA was added at 100 μL/well to stand still at room temperature for 10 minutes. After the wells were washed three times, DAPI (1/500 dilution) was added to the wells at 100 μL/well to stand still at room temperature for 5 minutes. After the wells were washed three times, the wells were subjected to photographing or Array Scan analysis.

detection of exosomes presenting TMEM-180 in DLD-1 culture supernatant [2]: successfully detected
B1: clone 1361: rat IgG anti-TMEM-180 monoclonal antibody; variable regions SEQ ID NOs: 70 and 71 (antibody, V domains shown)
VH: MDIRLSLVFLVLFIKGVQCEVQLVESGGGLVQPGRSLKLSCVASGFTFNNYWMTWIRQAPGKGLEWVASITNTGGSTYYPDSVKGRFTISRDYAKSTLYLQMNSLRSEDTATYYCTRAGYSSYPDYFDYWGQGVMLTVSS
VL: MMAPVQLLGLLLLWLPAMRCNIQMTQSPSLLSASVGDRVTLSCKAGQNIYNYLAWYQQKLGEAPKLLIYNANSLQTGIPSRFSGSGSGTDFTLTISSLQPEDVATYFCQQYSSGWTFGGGTKLELK
Detection Sensitivity of Cancers, P/N ([1]; Cancer Type: Bladder): (3/4)
Detection Sensitivity of Cancers, Percentage (%) ([1]; Cancer Type: Bladder): 75%
Detection Sensitivity of Cancers, Percentage (%) ([1]; Cancer Type: Brain): 100%
Detection Sensitivity of Cancers, P/N ([1]; Cancer Type: Brest): (2/6)
Detection Sensitivity of Cancers, Percentage (%) ([1]; Cancer Type: Brest): 33%
Detection Sensitivity of Cancers, P/N ([1]; Cancer Type: Gastric): (5/8)
Detection Sensitivity of Cancers, Percentage (%) ([1]; Cancer Type: Gastric): 63%
Detection Sensitivity of Cancers, P/N ([1]; Cancer Type: Kidney): (3/3)
Detection Sensitivity of Cancers, Percentage (%) ([1]; Cancer Type: Kidney): 100%
Detection Sensitivity of Cancers, P/N ([1]; Cancer Type: Pancreas): (9/9)
Detection Sensitivity of Cancers, Percentage (%) ([1]; Cancer Type: Pancreas): 100%
Detection Sensitivity of Cancers, P/N ([1]; Cancer Type: Prostate): (2/3)
Detection Sensitivity of Cancers, Percentage (%) ([1]; Cancer Type: Prostate): 67%
Detection Sensitivity of Cancers, P/N ([3]; Cancer Type: Brain): (7/7)
Detection Sensitivity of Cancers, P/N ([3]; Cancer Type: Colon): (7/10)
Detection Sensitivity of Cancers, Percentage (%) ([3]; Cancer Type: Colon): 70%
recognition of cancers, summary of Table 23 ([3]; comparison of 1361, 669, 1052, 1105): highest sensitivity
staining of normal tissues from skin, brain, small intestine, liver, heart, lung and kidney ([4]; 1 μg/mL, paraffin sections): negative
reactivity to normal skin tissues ([4]; FIG. 13): low reactivity

B2: 1361-7 clone: variant having an amino acid substitution S82A in the 1361 antibody (antibody, V domains shown)
VH: EVQLVESGGGLVQPGRSLKLSCVASGFTFNNYWMTWIRQAPGKGLEWVASITNTGGSTYYPDAVKGRFTISRDYAKSTLYLQMNSLRSEDTATYYCTRAGYSSYPDYFDYWGQGVMLTVSS
VL: NIQMTQSPSLLSASVGDRVTLSCKAGQNIYNYLAWYQQKLGEAPKLLIYNANSLQTGIPSRFSGSGSGTDFTLTISSLQPEDVATYFCQQYSSGWTFGGGTKLELK
reactivity to normal stroma (normal stroma): almost the same as that of the 1361 antibody

detection of exosomes presenting TMEM-180 in DLD-1 culture supernatant [2]: successfully detected
B3: clone 669: rat IgM anti-TMEM-180 monoclonal antibody; variable regions SEQ ID NOs: 78 and 79 (antibody, V domains shown)
VH: MGWICIIFLVATATGVHSQVKLLQSGAALVKPGASVKMSCKASGYTFTDYWVSWVKQSHGKSLEWIGEIYPNSGATNFNENFKGKATLTVDKSTSTAYMELSRLTSEDSAIYYCTRDGTMGIAYYFDYWGQGVMVTVSS
VL: MMAAVQLLGLLLLWVPAMRCDIQMTQSPSFLSASVGDRVTINCKASQNINRYLNWYQQKLGEAPKLLIYNANSLQTGIPSRFSGSGSGTDFTLTISSLQPEDVATYFCLQHNSWPYTFGAGTKLELK
Detection Sensitivity of Cancers, P/N ([1]; Cancer Type: Pancreas): (3/9)
Detection Sensitivity of Cancers, Percentage (%) ([1]; Cancer Type: Pancreas): 33%
Detection Sensitivity of Cancers, P/N ([3]; Cancer Type: Colon): (3/10)
Detection Sensitivity of Cancers, Percentage (%) ([3]; Cancer Type: Colon): 30%
internalization into cells (Wildtype DLD-1 cells): concentrated at a high concentration in the cells
